Assay results: patent publication US20180244760A1

Assays:
[1] = molecular target: Clostridium difficile toxin A (TcdA) (Clostridium difficile) (UniProt P16154); assay: cell-based or functional assay
[2] = molecular target: Clostridium difficile toxin A (TcdA) (Clostridium difficile) (UniProt P16154); assay: ELISA, plate coated with 1 ug/ml TcdA

Chain of Clostridium difficile toxin A (TcdA) (Clostridium difficile) (P16154 whole entry): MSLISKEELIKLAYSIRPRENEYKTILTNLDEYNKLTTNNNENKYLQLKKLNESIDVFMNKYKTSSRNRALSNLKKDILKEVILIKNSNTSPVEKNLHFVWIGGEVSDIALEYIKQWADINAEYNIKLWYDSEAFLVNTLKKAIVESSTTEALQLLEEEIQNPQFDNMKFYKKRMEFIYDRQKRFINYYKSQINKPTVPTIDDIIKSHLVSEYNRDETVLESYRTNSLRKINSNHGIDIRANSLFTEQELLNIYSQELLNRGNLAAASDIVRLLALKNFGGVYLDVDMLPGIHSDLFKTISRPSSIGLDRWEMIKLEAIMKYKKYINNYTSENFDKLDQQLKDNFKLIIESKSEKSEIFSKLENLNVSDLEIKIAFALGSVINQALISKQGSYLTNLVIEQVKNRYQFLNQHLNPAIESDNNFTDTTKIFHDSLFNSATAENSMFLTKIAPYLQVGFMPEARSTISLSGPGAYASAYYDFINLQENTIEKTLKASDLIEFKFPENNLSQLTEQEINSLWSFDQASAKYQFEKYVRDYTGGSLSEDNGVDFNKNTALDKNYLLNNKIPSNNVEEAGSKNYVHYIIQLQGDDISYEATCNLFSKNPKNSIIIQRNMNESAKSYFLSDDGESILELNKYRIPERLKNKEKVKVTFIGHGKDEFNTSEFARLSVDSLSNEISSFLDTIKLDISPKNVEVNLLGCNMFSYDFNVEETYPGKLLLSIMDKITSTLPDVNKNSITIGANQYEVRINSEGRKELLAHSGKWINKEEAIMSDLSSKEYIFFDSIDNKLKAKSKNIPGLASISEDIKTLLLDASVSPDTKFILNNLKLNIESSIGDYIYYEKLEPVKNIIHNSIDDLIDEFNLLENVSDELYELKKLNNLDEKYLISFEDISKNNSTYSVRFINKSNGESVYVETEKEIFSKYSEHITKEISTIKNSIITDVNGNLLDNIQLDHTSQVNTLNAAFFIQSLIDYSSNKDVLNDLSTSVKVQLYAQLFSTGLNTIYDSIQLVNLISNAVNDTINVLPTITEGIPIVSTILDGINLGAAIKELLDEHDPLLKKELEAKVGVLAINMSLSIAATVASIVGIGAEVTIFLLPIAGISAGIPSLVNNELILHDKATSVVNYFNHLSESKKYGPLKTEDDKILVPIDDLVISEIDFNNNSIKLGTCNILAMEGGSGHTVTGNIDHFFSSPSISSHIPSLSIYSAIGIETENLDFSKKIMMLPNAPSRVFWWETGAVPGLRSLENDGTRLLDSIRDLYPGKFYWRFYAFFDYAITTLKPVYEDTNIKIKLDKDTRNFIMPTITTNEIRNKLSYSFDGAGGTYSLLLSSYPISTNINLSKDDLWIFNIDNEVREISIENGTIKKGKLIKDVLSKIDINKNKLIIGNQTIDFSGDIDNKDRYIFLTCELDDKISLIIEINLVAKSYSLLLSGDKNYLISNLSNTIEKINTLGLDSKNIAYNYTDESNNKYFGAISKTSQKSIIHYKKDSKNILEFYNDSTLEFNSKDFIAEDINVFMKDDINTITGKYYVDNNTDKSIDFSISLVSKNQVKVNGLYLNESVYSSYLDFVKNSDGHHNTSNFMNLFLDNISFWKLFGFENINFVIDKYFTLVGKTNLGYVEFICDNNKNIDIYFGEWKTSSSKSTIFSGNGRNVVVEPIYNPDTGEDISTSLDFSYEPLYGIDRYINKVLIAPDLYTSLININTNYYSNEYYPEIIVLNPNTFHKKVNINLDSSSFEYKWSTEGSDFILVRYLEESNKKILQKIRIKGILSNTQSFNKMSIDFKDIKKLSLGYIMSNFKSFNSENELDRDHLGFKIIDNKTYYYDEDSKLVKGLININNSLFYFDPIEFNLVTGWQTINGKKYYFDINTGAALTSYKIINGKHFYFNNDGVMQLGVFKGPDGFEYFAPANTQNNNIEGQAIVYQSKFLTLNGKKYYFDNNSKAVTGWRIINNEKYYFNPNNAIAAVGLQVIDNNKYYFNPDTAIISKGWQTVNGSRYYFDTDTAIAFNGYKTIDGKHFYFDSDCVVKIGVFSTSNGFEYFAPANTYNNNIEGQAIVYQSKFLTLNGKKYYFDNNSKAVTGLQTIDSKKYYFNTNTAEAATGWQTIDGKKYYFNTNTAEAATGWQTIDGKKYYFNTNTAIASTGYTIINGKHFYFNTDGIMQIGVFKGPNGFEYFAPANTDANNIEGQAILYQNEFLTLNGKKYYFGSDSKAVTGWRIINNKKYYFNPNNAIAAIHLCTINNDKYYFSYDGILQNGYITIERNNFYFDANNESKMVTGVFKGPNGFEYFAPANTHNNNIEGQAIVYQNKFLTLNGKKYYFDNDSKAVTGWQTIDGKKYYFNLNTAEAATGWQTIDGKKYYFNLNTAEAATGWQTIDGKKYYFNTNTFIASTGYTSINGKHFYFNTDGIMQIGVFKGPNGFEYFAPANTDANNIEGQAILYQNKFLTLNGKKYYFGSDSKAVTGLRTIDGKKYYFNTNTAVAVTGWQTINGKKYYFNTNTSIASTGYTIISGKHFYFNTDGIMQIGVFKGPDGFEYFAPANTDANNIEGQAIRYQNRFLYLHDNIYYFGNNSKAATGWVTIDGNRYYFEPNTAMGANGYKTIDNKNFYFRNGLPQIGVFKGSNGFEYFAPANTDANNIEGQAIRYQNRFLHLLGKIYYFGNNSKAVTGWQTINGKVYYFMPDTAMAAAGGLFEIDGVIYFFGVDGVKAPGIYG

## Merck anti-TcdA human monoclonal antibody
[1]
  minimal dose of antibody protecting Vero cells from TcdA-induced cell rounding: > 10 nM
[2]
  EC50 (read off the curve): 2 ng/mL
